Measurements taken from paper PMC8172837.
Several values for one entry are separate records, joined by “and”; a condition that tells them apart may be missing. Equal entries are not always repeated. Values belong to the substance of their own block, whether it stands above or below them.

Key:
[1] = biological target: Aβ in the dimer and trimer bands of the culture media of C99 transfected CHO cells (isoform not determined) (human); experiment: SDS-PAGE and western blot of oligomer bands; CHO cell lysates (4% SDS lysis buffer, heated 10 min at 70 °C with 50 mM DTT) and lyophilised culture media 48 h after transfection; 4-12% NuPAGE bis-tris gels; detected with anti-Aβ W0-2
[2] = biological target: C99-derived hexameric Aβ42 (cell-derived amyloid-β 42 from CHO cells transfected with C99) (human) (UniProt P05067); experiment: as above
[3] = biological target: C99-derived hexameric Aβ42 (cell-derived amyloid-β 42 from CHO cells transfected with C99) (human) (UniProt P05067); experiment: GELFrEE fractionation by size and western blot; Aβ immunoprecipitated with W0-2 from media, boiled at 95 °C with DTT, separated on the GELFrEE 8100 system; fractions blotted with W0-2; hexamer in fraction 5
[4] = biological target: Hexameric Aβ from CHO cells transfected with C99 carrying the Arctic (E22G) FAD mutation (human); experiment: SDS-PAGE and western blot of oligomer bands; CHO cell lysates (4% SDS lysis buffer, heated 10 min at 70 °C with 50 mM DTT) and lyophilised culture media 48 h after transfection; 4-12% NuPAGE bis-tris gels; detected with anti-Aβ W0-2
[5] = biological target: Hexameric Aβ from CHO cells transfected with C99 carrying the Dutch (E22Q) FAD mutation (human); experiment: as above
[6] = biological target: Hexameric Aβ from CHO cells transfected with C99 carrying the Flemish (A21G) FAD mutation (human); experiment: as above
[7] = biological target: Hexameric Aβ from CHO cells transfected with C99 carrying the Iowa (D23N) FAD mutation (human); experiment: as above
[8] = biological target: Hexameric Aβ from CHO cells transfected with C99 carrying the Italian (E22K) FAD mutation (human); experiment: as above
[9] = biological target: vC42, assembly-impaired variant of Aβ42 (F19S, G37D) from transfected CHO cells (human); experiment: as above

stoichiometry N [1]: 2 and 3
Substance: Aβ in the dimer and trimer bands of the culture media of C99 transfected CHO cells (isoform not determined) (peptide)

stoichiometry N [2]: 6 | stoichiometry N [3]: 6
Substance: C99-derived hexameric Aβ42 (cell-derived amyloid-β 42 from CHO cells transfected with C99) (from UniProt P05067 672-770) (peptide)

stoichiometry N [4]: 6
Substance: Hexameric Aβ from CHO cells transfected with C99 carrying the Arctic (E22G) FAD mutation (peptide)

stoichiometry N [5]: 6
Substance: Hexameric Aβ from CHO cells transfected with C99 carrying the Dutch (E22Q) FAD mutation (peptide)

stoichiometry N [6]: 6
Substance: Hexameric Aβ from CHO cells transfected with C99 carrying the Flemish (A21G) FAD mutation (peptide)

stoichiometry N [7]: 6
Substance: Hexameric Aβ from CHO cells transfected with C99 carrying the Iowa (D23N) FAD mutation (peptide)

stoichiometry N [8]: 6
Substance: Hexameric Aβ from CHO cells transfected with C99 carrying the Italian (E22K) FAD mutation (peptide)

stoichiometry N [9]: 2 and 3
Substance: vC42, assembly-impaired variant of Aβ42 (F19S, G37D) from transfected CHO cells (peptide)
